Measurements from PMC2749330 (The Biochemical journal, 2008).

Target: recombinant CLEC-2, monomeric, as used in the surface plasmon resonance studies (UniProt Q9P126 55-229)
Experiment: SPR

recombinant CLEC-2, monomeric, as used in the surface plasmon resonance studies, sequence (Q9P126 55-229): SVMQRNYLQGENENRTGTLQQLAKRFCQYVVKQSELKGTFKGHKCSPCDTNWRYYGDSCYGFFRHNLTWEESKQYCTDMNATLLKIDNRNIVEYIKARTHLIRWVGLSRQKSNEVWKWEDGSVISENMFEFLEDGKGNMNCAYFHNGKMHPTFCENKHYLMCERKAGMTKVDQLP

Kd: 24.5 ± 3.7 µM
B1: recombinant podoplanin fused at its C-terminus to the human IgG1 Fc region (Fc fusion, UniProt Q86YL7 23-131, looked up)
chain: ASTGQPEDDTETTGLEGGVAMPGAEDDVVTPGTSEDRYKSGLTTLVATSVNSVTGIRIEDLPTSESTVHAQEQSPSATASNVATSHSTEKVDGDTQTTVEKDGLSTVTL
